# From the nanobody polyreactivity screen of Harvey et al. (2022)
# Test: yeast display, Sf9 membrane polyspecificity reagent, FACS + sequencing; frameworks hold sequencing errors
# In short: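 Galactose-induced (36–48 hours) yeast carrying a synthetic nanobody display library were exposed to 10% biotinylated, detergent-solubilized Sf9 membrane reagent at 4 °C for 1 hour. FACS followed streptavidin microbead enrichment, using low and high (top ~1%) gates for expression (anti-HA) and reagent binding (streptavidin). Colony PCR, MiSeq 2 × 250 sequencing and CDR-length filtering followed. Labels for polyreactivity reflect the gate of origin.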
row,Sequence,polyreactivity (PSR sort gate)
1,QVQLVESGGGLVQAGGSLRLSCAASGSIFSDYGMGWYRQAPGKERELVAGISWNGTSTYYADSVKGRFTISRDNAKNTVYLQMNSLKPEDTAVYYCAATFEGGISDLLDLDYWGQGTQVTVSS,low polyreactivity
2,QVQLVESGGGLVQAGGSLRLSCAASGSIFSENTMGWYRQAPGTKREWVADITSGGSTNYADSVKGRFTISRDNAKNTVYLQMNSLKPEDTAVYYCAVPGRLYAHPQGYDYWGQGTQVTVSS,low polyreactivity
3,QVQLVESGGGLVQAGGSLRLSCAASGSIFSFYAMGWYRQAPGKERELVAAIRYSRGSTYYADSVKGRFTISRDNAKNTVYLQMNSLKPEDTAVYFCAARGGSRRFQSQAYSLPRYDYWGQGTQVTVSS,high polyreactivity
4,QVQLVESGGGLVQAGGSLRLSCAASGSIFSFYAMGWYRQAPGKERELVADISLTTDSTYADSVKGRFTISRDNAKNTVYLQMNSLKPEDTAVYYCAADGSNWEYDYWGQGTQVTVSS,low polyreactivity
5,QVQLVESGGGLVQAGGSLRLSCAASGSIFSGNAMGWYRPAPGKERELVAAISSNGGRTYYADSVKGRFTISRDNAKNTVYLQMNSLKPEDTAVYYCAADYGKRRYGYYYWGQGTQVTVSS,high polyreactivity
6,QVQLVESGGGLVQAGGSLRLSCAASGSIFSGNAMGWYRQAPGKVRELVAAISRSGGSTYYADSVKGRFTISRDNAKNTVYLQMNSLKPEDTAVYYCAAYRTHGPPRAIRFDYWGQGTQVTVSS,high polyreactivity
7,QVQLVESGGGLVQAGGSLRLSCAASGSIFSGWYTMGWYRQAPGKERELVASISISTTDTYYADSVKGRFTISRDNAKNTVYLQMNSLKPEDTAVYYCADEVTSFSFGGDATEYYWGQGTQVTVSS,low polyreactivity
8,QVQLVESGGGLVQAGGSLRLSCAASGSIFSGYAMGWYRQAPGKERELVAAISTSSVRTYYADSVKGRFTISRDNAKNTVYLQMNSLKPEDTAVYYCAARDGGSYTPMYYWGHGTQVTVSS,high polyreactivity
9,QVQLVESGGGLVQAGGSLRLSCAASGSIFSGYAMGWYRQAPGKERELVAAITRSGGRTYYADSVKGRFTISRDNAKNTVYLQMNSLKPEDTAVYYCATLPRYYGYWGQGTQVTVSS,high polyreactivity
10,QVQLVESGGGLVQAGGSLRLSCAASGSIFSGYAMGWYRQAPGKERELVAAITSGGSTDYADSVKGRFTISRDNAKNSVYLQMNSLKPEDTAVYYCAAEGGYSSYGYDYWGQGTQVTVSS,low polyreactivity
11,QVQLVESGGGLVQAGGSLRLSCAASGSIFSGYAMGWYRQAPGKERELVAALTRSGGRTYYADSVKGRFTISRDNAKNTVYLQMNSLKPEDTSVYYCATLPRYYGYWGQGTQVTVSS,high polyreactivity
12,QVQLVESGGGLVQAGGSLRLSCAASGSIFSGYTMGWYRQAPGKERELVAGISYRGGSTYYADSVKGRFTISRDNAKNTVYLQMNSLKPEDTAVYYCAALYYRRGSLNYEYWGQGTQVTVSS,high polyreactivity
13,QVQLVESGGGLVQAGGSLRLSCAASGSIFSGYVMGWSRQAPGKERELVAAISGSGGSTYYADSVKGRFTISRDNAKNTVYLQMNSLNPEDTAVYYCNKGLSRSYWWVDYWGQGTQVTVSS,low polyreactivity
14,QVQLVESGGGLVQAGGSLRLSCAASGSIFSGYVMGWYRQAPGKERELVAAISGSGGSTYYADSVKGRFTISRDNAKNTVYLQMNSLKPEDTAVYYCNKGLSRSYWWVDYWGQGTQVTVSS,low polyreactivity
15,QVQLVESGGGLVQAGGSLRLSCAASGSIFSHNAMGWYRQAPGKERELVAAITGIVGSTYYADSVKGRFTISRDTAKNTVYLQMNSLNPEDTAVYYCAADNPVPEGSRTFEYWGQGTQVTVSS,low polyreactivity
16,QVQLVESGGGLVQAGGSLRLSCAASGSIFSINTMGWYRQAPGKERELVAAISRTGGSTYYADSVKGRFTISRDNAKNTVYLQMNSLKPEDTAVYYCAARKYADGRIFYYWGQGTQVTVSS,high polyreactivity
17,QVQLVESGGGLVQAGGSLRLSCAASGSIFSIYAMGWYRQAPGKERELVAAIDSGTSTTYADSVKGRFTISRDNAKNTVYLQMKSLKPEDTAVYYCAAALYSDVAAVATYGYYWGQGTQVTVSS,low polyreactivity
18,QVQLVESGGGLVQAGGSLRLSCAASGSIFSKNAIGWYRQAPGKERELVATISRSGGSTYYADSVKGRFTISRDNAKNTVYLQMNSLKPDDSAVYYCNRDTRYYWKRYGYWGQGTQVTVSS,high polyreactivity
19,QVQLVESGGGLVQAGGSLRLSCAASGSIFSKNAMGWYRQAPGKERELLAAITLNGGSTYYADSVKGRFTNSRDNAKNTVYLQMNSLKPEDTSVFYFAKSDRQWWGYYYQFDYLGQGTQVTVSS,low polyreactivity
20,QVQLVESGGGLVQAGGSLRLSCAASGSIFSKYAMGWYRQAAGKERELVAGISCSGGSTYYADSVNGRFTISRDNAQITVYLQINSLKPEDTAVYYCAVGIPYRGRQGYYGYYSYDYWGQGTHVTVSS,high polyreactivity
21,QVQLVESGGGLVQAGGSLRLSCAASGSIFSKYAMGWYRQAPGKERELVAAISWSGTSTYYADSVKGRFTISRDNAKNTVYLQMNSLKPEDTAVYYCAASSPRSLSLLGYWGQGTQVTVSS,low polyreactivity
22,QVQLVESGGGLVQAGGSLRLSCAASGSIFSLNAMGWYRQAPGKERELVAASGGGSTYYADSVKGRFTISRDNAKNTVYLQMNSLKPEDSAVYYCAARVLTDELDYWGQGTQVTVSS,low polyreactivity

row,Sequence,polyreactivity (PSR sort gate)
1,QVQLVESGGGLVQAGGSLRLSCAASGSIFSLYAMGWYRQAPGKERELVAAISQSGDSTFYADSVKGRFTISRDHAKNTVYLQMNSLKPEYTAVSYCAADPRNKAWKWDDYWGQGTQVTVSS,low polyreactivity
2,QVQLVESGGGLVQAGGSLRLSCAASGSIFSNNAMGWYRQAPGKERELVAAISRSGTNTYYADSVKGRFTISRDNAKNTVYLQMNSLKPEDTAVEYCAARGVYVKYYYWGQGTQVTVSS,high polyreactivity
3,QVQLVESGGGLVQAGGSLRLSCAASGSIFSNYAMGWYRQAPGKERELVAAISRNGGSTSYADSVKGRFTISRDNAKNTVYLQMNSLKPEDTAVYYCAAVYVTGSYRYGYWGQGTQVTVSS,high polyreactivity
4,QVQLVESGGGLVQAGGSLRLSCAASGSIFSNYAMGWYRQAPGKERELVAAITLSSGGTYYADSVKGRFTISRDNAKNTVYLQMNSLKPEDTAVYYCAAQYKYFIHRYYYWGQGTQVTVSS,high polyreactivity
5,QVQLVESGGGLVQAGGSLRLSCAASGSIFSPYAMGWYRQAPGKERELVAAISYGVGNTYYADSVKGRFTISRDNAKNTVYLQMNSLIPEDTAVYYCAAEEYDYVFPHYFTKGYYWGQGTQVTVSS,high polyreactivity
6,QVQLVESGGGLVQAGGSLRLSCAASGSIFSPYAMGWYRQAPGKERELVAAITWSGGSTYYADSVKGRFTISRDNAKNTVYLQMNSLKPEDTAVYYCAATYYVNAWRYYYWGQGTQVTVSS,high polyreactivity
7,QVQLVESGGGLVQAGGSLRLSCAASGSIFSQYAMGWYRQAPGKERELVAAIRTGGRTHYADSVKGRFTISRDNAKKTVYLQMNSLKPEDTAVYYCAAQARYYWGTTYEYWGQGTQVTVSS,high polyreactivity
8,QVQLVESGGGLVQAGGSLRLSCAASGSIFSQYAMGWYRQAPGKERELVAAITSSGGRTYYADSVKGRFTISRDNAKNTVYLQMNSLKPEDTAVYYCAARPYSKRHEYWGQGTQVTVSS,high polyreactivity
9,QVQLVESGGGLVQAGGSLRLSCAASGSIFSQYVMGWYRQAPGKERELVAAISWSGGHTYYADSVKGRFTISRDNAKNTVYLQMNSLKPEDTAVYYCATVPRKTPGNAELDYWGQGTQVTVSS,high polyreactivity
10,QVQLVESGGGLVQAGGSLRLSCAASGSIFSQYVMGWYRQAPGKERELVAAISWSGGHTYYADSVKGRFTISRDNAKNTVYLQMNSLKPEDTAVYYCRAFFRRDYWGQGTQVTVSS,high polyreactivity
11,QVQLVESGGGLVQAGGSLRLSCAASGSIFSRNAMGWYRQAPGKERELVAAITGSGSSTYYADSVKGRFTISRDNAKNTVYLQMNSLKPEDSAVYYCNAARVYLSEWGQGTQVTVSS,high polyreactivity
12,QVQLVESGGGLVQAGGSLRLSCAASGSIFSRNAMGWYRQAPGKERELVAGISTGGSTNYADSVKGRFTISRDNAKNTVYLQMNSLKPEDTAVYYCAAPLAYEGDDWGQGTQLTVSS,low polyreactivity
13,QVQLVESGGGLVQAGGSLRLSCAASGSIFSRYAMGWYRQAPGKERELVAAITWSGGSTYYADSVKGRFTISRDNAKNTVYLQMNSLKPEDTAVYYCAAVGYAPYNHRYDYWGQGTQVTVSS,low polyreactivity
14,QVQLVESGGGLVQAGGSLRLSCAASGSIFSSNAMGWYIQAPGKERELVAAITYSGGSTYYADSVKGRFTISRDNAKNTVYLQMNSLKPEDTAVYYCAADNGNWYDGYSYDYWGQGTQVTVSS,low polyreactivity
15,QVQLVESGGGLVQAGGSLRLSCAASGSIFSSYAMGWYRPAPGNERELVAAISKSGGSTYYADSVKGRFTISRDNAKNTVYLQMNSLKPEDTAVYYCAARTRQLEYNSWGQGTQVTVSS,high polyreactivity
16,QVQLVESGGGLVQAGGSLRLSCAASGSIFSSYAMGWYRQAPGKERALVAGISRRGGSTYYADSVKGRFTISRDNAKNTVYLQMNSLKPEDTAVYYCNARSAGSDLDYWGQGTQVTVSS,high polyreactivity
17,QVQLVESGGGLVQAGGSLRLSCAASGSIFSSYAMGWYRQAPGKEREFVAAISWGGGSTYYADSVKGRFTISRDNAKNSVYLQMNSLKPEDTAVYYCAVETWLYPYDYWGQGTQVTVSS,high polyreactivity
18,QVQLVESGGGLVQAGGSLRLSCAASGSIFSSYAMGWYRQAPGKERELVAAISQSGGDTYYADSVKGRFTISRDNAKNTVYLQMNSLKPEDTAVYYCNRDFSLVVHYNFDYWGQGTQVTVSS,low polyreactivity
19,QVQLVESGGGLVQAGGSLRLSCAASGSIFSSYAMGWYRQAPGKERELVAAISSSGDSTYADSVKGRFTISRDNAKNTVYLQMNSLKPEDTAVYDCAVGGAGSDDYWGQGTQVTVSS,low polyreactivity
20,QVQLVESGGGLVQAGGSLRLSCAASGSIFSSYAMGWYRQAPGKERELVASISRRGGSTYYADSVKGRFTISRDNAKNTVYLQMNSLKPEDTAVYYCNASGGPYRYYYWGQGTQVTVSS,low polyreactivity
21,QVQLVESGGGLVQAGGSLRLSCAASGSIFSSYTMGWYRQAPGKERELVASITSGDSTNYADSVKGRFTISRDNAKNTVYLQMNSLKPEDTAVYYCNKSTLGVPVYEVIFEYWGQGTQVTVSS,low polyreactivity
